Substitutions are numbered along the chain they refer to. Names may count otherwise.
B1: MCvar1 PfEMP1 CIDRα2.8 domain (residues 576-745, C626S) (domain or fragment)
chain: EDKIMSYNAFFWMWVHDMLIDSIKWRDEHGRCINKDKGKTCIKGCNKKCISFQKWVEQKKTEWGKIKDHFRKQKDIPKDWTHDDFLQTLLMKDLLLEIIQDTYGDANEIKRIEALLEQAGVGGIDFAALAGLYTKGFVAEKDTTIDKLLQHEQKEADKCLKTHTDDTCPP
notes: PfEMP1 MCvar1, Plasmodium falciparum, CIDRα2.8 domain, residues 576-745; Synthetic codon-optimised cDNA (GeneArt) cloned into pHLsec-8H; also called MCvar1 CIDRα2.8; source: HEK293 cells, secreted, purified (TALON, size-exclusion chromatography); coexpressed with CD36 with kifunensine for the structure and SEC-MALS, expressed individually for SPR
B2: MCvar1 PfEMP1 CIDRα2.8 domain (residues 576-745, C626S) (domain or fragment)
chain: B1 chain
notes: CIDRα2.8 domain of the MCvar1 PfEMP1, Plasmodium falciparum; the reverse cloning primer (D1:p11) ends at ...DTCPP; also called MCvar1 CIDRα2.8; MC179 CIDRα2.8; source: HEK293, secreted, purified (TALON, size-exclusion chromatography); for the crystal co-expressed with CD36 in the presence of kifunensine
B3: MCvar1 CIDRα2.8 domain (residues 576-745, C626S) D680N:N682T (domain or fragment)
chain: B1 chain with D105N, N107T
modifications: N-linked glycan at the introduced site on the majority of the protein
notes: CIDRα2.8 domain of the MCvar1 PfEMP1, Plasmodium falciparum; Introduces an N-linked glycosylation site into site 2 of the crystal; also called site 2 mutant; site 2; source: HEK293, secreted, purified (TALON, size-exclusion chromatography)
B4: MCvar1 CIDRα2.8 domain (residues 576-745, C626S) E672A (domain or fragment)
chain: B1 chain with E97A
notes: CIDRα2.8 domain of the MCvar1 PfEMP1, Plasmodium falciparum; source: HEK293, secreted, purified (TALON, size-exclusion chromatography)
B5: MCvar1 CIDRα2.8 domain (residues 576-745, C626S) F660N:Q662T (domain or fragment)
chain: B1 chain with F85N, Q87T
modifications: N-linked glycan at the introduced site on a small fraction of the protein
notes: CIDRα2.8 domain of the MCvar1 PfEMP1, Plasmodium falciparum; Introduces an N-linked glycosylation site into site 1 of the crystal; also called site 1 mutant; site 1; source: HEK293, secreted, purified (TALON, size-exclusion chromatography)
B6: MCvar1 CIDRα2.8 domain (residues 576-745, C626S) Q648A (domain or fragment)
chain: B1 chain with Q73A
notes: as for B4
B7: IT4var61 CIDRα2.7 domain (domain or fragment)
chain: PWCGVKRNGGGWKAKSDGECAKEKKTYKKKNITEIPVLTPDKEKHNILQKYENFCKNSDGNNGDQIKNWQCYYEEKDESDNDGDSNICVLQNENIGKKEEKSMPYHPFFWKWVTEMLIDSMYWRKELKRCINKETKACKNGCKNNCDCYKRWVEEKKKEWGQIKTHFNTQEDMREDIGENTDPGIILAALLNIEDLFENIKDTYGDVKEIKDINQMLEKENEENEGTAGADSKKKNTIDLMINHEQKDAQKCVTNNPDKDC
notes: CIDRα2.7 domain of the PfEMP1 IT4var61, Plasmodium falciparum; also called CIDRα2.7 IT4var61; IT4var61 (α2.7)
B8: IT4var45 CIDRα2.9 domain (domain or fragment)
chain: PWCGVNGTKGNWTPKNDDDCKPGNEYKNYENTQIPILTGDKTKSEIVERYRKFCKNNGKNGANGREGGVGGSENGAASNSDNATTGYCGTNNNDKDPSLCEKWTCYYKKKEKNDGKKAINFCVLQDDKVGKSQEKSMHYNSFFWDWVYHMLHDSLDWRKQLGRCINKKEETKCIGSCNKKCECFAKWVGHKQQEWEQIKKHFLKQDDIGQETNCDPMVTLEILLDIDELLKNIKDTHANADDIDRIQNMLQQAGFDGGVAALVGRCTEGFVAEKDTTIDKFLEKELQEAEKCLETHKEKC
notes: CIDRα2.9 domain of the PfEMP1 IT4var45, Plasmodium falciparum; also called CIDRα2.9 IT4var45; IT4var45 (α2.9)
B9: IT4var30 CIDRα2.10 domain (domain or fragment)
chain: PWCGIEEQKVDGKWKAKNNGECAKVENKIYDPKKTTTIEILTGDNEKFGIYEKYNKFCANGKNGVTSGAPDTAPGKNGNQIVTWQCYYDKKKRSGQNNDNCVEGTWEKFTGKQTVKSYNVFFWDWVYHMLHDSLEWRERLNSCINNAKSQNCKNNKCNRECGCFAKWVVKKKDEWDKIKDHFNKQENIGQNVGFIEFNHYGVLEGVLDKDELLKNIKDTHADAKDIERIDKMLQQAGVVGGGRGGENNTIIDKFLQEEERFAKDCQQKQEEC
notes: CIDRα2.10 domain of the PfEMP1 IT4var30, Plasmodium falciparum; also called CIDRα2.10 IT4var30; IT4var30 (α2.10)
B10: HB3var13 CIDRα3.2 domain (domain or fragment)
chain: PLCGVKKEKGTWVRKDSMNDCPRIKLYKPINDKVGTPINFLYSGDGQTEIAEKLKKFCRTENGSDGSSSARANGASGDKNGGSGSQELYQYWKCYQIGDLQKVREGEDDEDDGQYDQEVENAGGLCILQKTNGKENVNKQKTSHEIQKTFNPFFYYWVVHMLKDSIHWRTEKIKSCINNTNELKACKNNKKCNSDCDCFKRWVKQKGKEWGQIKVHFKTQDIRGKVVNGNTVVSFFLDHDELLEGVLDKGLLLESLQEAYGNAEDIKHIKKLLQETDVVGGGEHKTTIDFLLKEELNEAEECLKKQKDNEC
notes: CIDRα3.2 domain of the PfEMP1 HB3var13, Plasmodium falciparum; also called CIDRα3.2 HB3var13; HB3var13 (α3.2)
B11: IT4var15 CIDRα3.5 domain (domain or fragment)
chain: PGCGVELIGNEWKEKNKGECKGGKRYNIPKGTKHNVIPVLSFGDEHKEIIEKIEQFCAESNSDSSKLTEQWKCYYGDKEYEVCTLENRNKSEEDPEEIQKTFHNFFYFWIRHLLNDSIEWRDKINNCIEKAKEGKCKNECKTDCGCFQRWIGKKKEEWGEIKKHFKTQDGFSIFGNNYDFVLENVLNIDELFQDITEAYGNSQKIQGIKDTLAKKKTQAADDATEQKNTIDLLFEYDSEEAEKCKKIQEEC
notes: CIDRα3.5 domain of the PfEMP1 IT4var15, Plasmodium falciparum; also called CIDRα3.5 IT4var15; IT4var15 (α3.5)
B12: IT4var14 CIDRα5 domain (domain or fragment)
chain: PWCGIEEQKDGKWKRINDHSACKEEELYTPKENAKYTKINVLTSGEGHEDIAKRLKEFCTKTQNGGGGSDDCGGNSDSSLCEPWQCYQPDQLEKVGGGEVDDKLKGAGGLCIFEKMKGEKKVKKQKTFNNFFNFWVAHVLKDSIDWRTQLTKCLSEDKLKKCEKGCKSNCECFKKWIEKKEKEWIKVKDQFNKQTDFLEWKHYLVLETILENYYFENIQKAYGDLKSIQEMKKMIKENKQNKNRTKDDEDALDVLFDHEKEEAEDCLDIHE
notes: CIDRα5 domain of the PfEMP1 IT4var14, Plasmodium falciparum; also called CIDRα5 IT4var14; IT4var14 (α5)
B13: IT4var12 CIDRα6 domain (domain or fragment)
chain: PWCGLKKQADGTWKRLYENDPQCPIKPKYEPPKGEEPTEIDVLYTGKENKDIIVKLREFCKTDGNTGFKNEEWNCYYQVGNDKCVLENGEELGGEKKVKDYDNFLMFWVAHMLKDSIEWRSKLSNCLKSDKKTCIKKCNDNCKCYEKWIGKKKVEWTQIKKHFDKQTDFQGWGRYFVLETVLEGDQFFTDITKAYGDAREIVHIQEMLQKKKEQVLHEDASNMKTIIDELLDHELKEAKQCIVNHKDNNC
notes: CIDRα6 domain of the PfEMP1 IT4var12, Plasmodium falciparum; also called CIDRα6 IT4var12; IT4var12 (α6)
B14: MAL6P1.252 CIDRα2.1 domain (domain or fragment)
chain: PWCGVKPGGPPWKDNDIDSCGKKEISFSDKDTTDISILSTDRAKKNILQKLENFCRDTEHINHDIWKCHYENTDNDNCILQNENTGSEKQKIMPFDAFFFLWLTQMLDDSIEWRKKLKTCINNEKPTNCIRGCKKPCECFERWVEQKEEEWISIEKHFDKQRDISEEERYITLEYILNEFFMDKIEKAYGIEKSKELKEKLKSNKGHGIIRDTEHSQDAIKILLEHELEDAKKCTETHNDEKC
notes: CIDRα2.1 domain of the PfEMP1 MAL6P1.252, Plasmodium falciparum; also called CIDRα2.1 MAL6P1.252
B15: IT4var24 CIDRα2.2 domain (domain or fragment)
chain: PLCGVNGPKGNWTDIEDKECTLVEKKKYDSNNTTNIDILTADKSQKNILQKYNKFCKNGANDEKSATPTANGGGQIKNWQCYYDESKESGQNNNCILGKWEDFTGNEDVTSYNVFFYNSIIEMLNDSIEWKDKLNICINNKTGKCRKVCKNPCECYKRWIEKKKTELEKIKDHFRKQKDIGDAAQREMTLNITLNNNFLNDIKDAYPVKQQLQKIEERLKDKMQEDFIFERTKTSIDKFLQEEEQFAEKCIEKHKC
notes: CIDRα2.2 domain of the PfEMP1 IT4var24, Plasmodium falciparum; also called CIDRα2.2 IT4var24; IT4var24 (α2.2)
B16: IT4var33 CIDRα2.4 domain (domain or fragment)
chain: PLCGLGMQEPPWNPKKDTDCEDRGIKTFDDRNSTPINLLVKDVTGTSIVEKLGGLCGNGAKKNIQTWKCRFESSQNYYCVLQNDKKNTPQQEIESFNSLFWHWITEMLKDSIDWRKEHENCINNNNTCKKGCKSKCECFEKWVKRMKEEWKQVLEVYDKQPDFKEVFTPYFTLGYLLKEYFTKIKAPYEEVESVQEFIKEMEQIIDENSNNINATKENNSITKFLQHEEGIATECKKTHNEEKC
notes: CIDRα2.4 domain of the PfEMP1 IT4var33, Plasmodium falciparum; also called CIDRα2.4 IT4var33; IT4var33 (α2.4)

Each binder was assayed against T1, human CD36 ectodomain (residues 35-439) (human, UniProt P16671 35-439) (assay: SEC-MALS; coexpressed and purified CD36:MCvar1 CIDRα2.8 complex at 1 mg/ml, Superdex S200 10/300 GL, 10 mM HEPES pH 7.5, 0.15 M NaCl). Conditions: both partners purified.
T1 construct: CD36, human, ectodomain residues 35-439; Cloned into pHLsec-8H (secretion vector); For crystallisation the complex was deglycosylated (endoglycosidase F1) and treated with carboxypeptidase Y in situ
T1 sequence (P16671 35-439): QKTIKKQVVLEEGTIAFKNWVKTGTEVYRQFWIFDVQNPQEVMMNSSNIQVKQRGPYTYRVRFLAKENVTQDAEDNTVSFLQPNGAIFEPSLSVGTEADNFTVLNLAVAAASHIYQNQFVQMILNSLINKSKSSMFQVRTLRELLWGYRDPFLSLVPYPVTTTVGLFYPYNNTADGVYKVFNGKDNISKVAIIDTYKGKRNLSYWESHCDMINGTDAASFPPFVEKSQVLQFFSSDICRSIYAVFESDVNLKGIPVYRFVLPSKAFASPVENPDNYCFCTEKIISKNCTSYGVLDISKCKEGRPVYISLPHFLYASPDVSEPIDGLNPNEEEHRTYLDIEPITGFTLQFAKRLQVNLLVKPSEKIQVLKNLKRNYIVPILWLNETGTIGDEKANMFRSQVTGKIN

| Binder | stoichiometry N |
| --- | --- |
| B1 | 1 |

The binders below were run against T2, human CD36 ectodomain (residues 35-439), C-terminal 8xHis and biotinylated BAP tag (human, UniProt P16671 35-439, biotin on the BAP tag (in vitro, BirA ligase)) (assay: SPR; biotinylated CD36 (wild type or F153A) immobilised on a CAPture chip to ~700 RU; CIDRα domains as analytes, two-fold dilutions from 400 nM (Supplementary Figure 10: 400 nM only), 240 s injection, 300 s dissociation; 25 °C, 20 mM HEPES pH 7.5, 0.15 M NaCl, 0.005% Tween20; affinities from equilibrium binding, one site-binding model). Conditions: both partners purified.
T2 construct: CD36, human, ectodomain residues 35-439; Construct for SPR; vector pHLsec-8H; also called CD36 wild-type; w.t; source: HEK293T, purified (TALON, size-exclusion chromatography), biotinylated in vitro with BirA; not shown: BAP tag, C-terminal, kept
T2 sequence (P16671 35-439): as above

| Binder | Kd [nM] |
| --- | --- |
| B2 | 12 |
| B3 | 18 |
| B4 | 86 |
| B5 | 306 |
| B6 | 362 |

Biological target: T2, human CD36 ectodomain (residues …)
Experiment: as above
Conditions: both partners purified
Remark: another data set of the same source

| Binder | Kd [nM] |
| --- | --- |
| B7 | 72 |
| B8 | 23 |
| B9 | 55 |
| B10 | 12.3 |
| B11 | 3 |
| B12 | 180 |
| B13 | 6.6 |
| B14 | 3.6 |
| B15 | 15.8 |
| B16 | 3.3 |

Reference: PMC5052687, “The structural basis for CD36 binding by the malaria parasite” (Nature Communications, 2016)
